The source of these data is the supplement of paper PMC9942255.

“And” between values parts separate entries of the source, which are not always exact repeats. Identical values can stand only once.

This data set has as its system Bacillus subtilis DB104 (SP-AmyQ fusion secretion). Kind of data set: AmyQ secretion efficiency, weighted average sort bin (1 = best secretion, 10 = worst) (bin number (weighted average, 1-10)); higher = lower secretion efficiency. In outline:
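B. subtilis DB104 library expressing mature AmyQ fused to designed signal peptides (amyE-integrated) was encapsulated at about 0.3 cells per ~65 nL alginate bead with fluorescein-starch, grown about 13 h at room temperature and nile red stained. Occupied beads were sorted by large-particle flow cytometry into 10 equally populated bins by green/red fluorescence ratio, and each bin's amplicons were Illumina-sequenced. Secretion score is the read-frequency-weighted average bin number, normalised to beads per bin, excluding low-abundance sequences.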

As to MLKKIALTLCPAIVGSLLFFTAPASGHVS, the AmyQ secretion efficiency amounted to 2.72.

With MKKAAAVLLSLGLVFGFSYGAGHVQEAKTK, the AmyQ secretion efficiency amounted to 7.17.

For MKKWIYVVLVLSIAGIGGFSDHAASS, the AmyQ secretion efficiency amounted to 6.49.

For MTRTGAIIAAVIVIAALITFNVRNASPG, the AmyQ secretion efficiency amounted to 7.74.

With MQLGKKLSVAVAASFMSLSISLPGVQAAEG, the AmyQ secretion efficiency amounted to 2.25.

For the sequence MRGKSAVLLSLIMLIAGFLISFDFQM, the AmyQ secretion efficiency amounted to 6.6.

As to MLGIRLLTIYIMLLGLIAWFPGAAQAEEK, the AmyQ secretion efficiency was 2.38.

On to MKKAAAVLLSLGLVFGFSYGAGHVDEAKTK, for which the AmyQ secretion efficiency came to 7.45.

With MKKSQYFIVFICFFVLFSVHPIALAAADS, the AmyQ secretion efficiency is 3.9.

MKRSISIFITCLLITLLTMGGMIASPASIAGT returned an AmyQ secretion efficiency of 4.57.

Regarding MTMLRKIIGWILLLCIIDDEAFTVIASGKEV, the AmyQ secretion efficiency was found to be 5.2.

For the sequence MKSCKQLIVCSLAAILLLRRKVSFAADS, the AmyQ secretion efficiency was 7.65.

Turning to MKLKKRVSMFLVALTMCGGLFVTPCKAVKT, the AmyQ secretion efficiency is 2.35.

Regarding MTMLRKIRRKRKRLCIIPLFAFTVIASGKEV, the AmyQ secretion efficiency is 6.99.

For MKLKKRVSMSSMFLVALTMCGGLFVTPAKAVKT, the AmyQ secretion efficiency came to 1.95.

MKIRKILLSSALSFGMLKDKVPALAAGT came in with an AmyQ secretion efficiency of 6.36.

MNKPTKLFSTLALAAGMTAAAAGGAGTIHAQRR came in with an AmyQ secretion efficiency of 6.62.

In turn, MRNLTKTSLLLAGLCTAAKKKFVTHASAEES yielded an AmyQ secretion efficiency of 8.31.

Turning to MMIKQCVICLSLLVFGTTTAHAEET, the AmyQ secretion efficiency was 2.61.

Regarding MKKLLAAGIIGLLTVSIASPSFAASC, the AmyQ secretion efficiency came out at 1.59.

On to MPYLKRVLLLLVTGLFMSLFAVTATYSAQTG, for which the AmyQ secretion efficiency is 3.91.

Sequence MIAYFGKCLLLVTIMFLGVLFGMHQANHG came in with an AmyQ secretion efficiency of 6.41.

With MRKKTKNRLISSVLSTVVISSLLFPGAAGASSK, the AmyQ secretion efficiency was 1.59 and 2.27 and 1.9.

In turn, MLTKRLLTIYIMLLGLIAWFPGAAQAAED showed an AmyQ secretion efficiency of 2.99.

MKKKLAAGLTASAIVGTTLVGGGAEAATI: the AmyQ secretion efficiency turned out to be 4.73.

MKVCQKSIVRSTTRQRIGTFVISVPFMANAQSD gave an AmyQ secretion efficiency of 7.4.

On to MMKKLFHSTLIVLLFFSFFGVQPCHAKKQ, for which the AmyQ secretion efficiency worked out at 1.69.

The sequence MKVCQKSIVRFLVSLIIGTFVISVPFMANFQSD showed an AmyQ secretion efficiency of 5.64.

With MKRKKKKASLVLFAVVFVFAVKGAPAKAETH, the AmyQ secretion efficiency worked out at 2.

Regarding MRGKSAVLLSLIMLIAGFLINFSFQM, the AmyQ secretion efficiency is 6.91.

MHLIRAAGAVCLAVVLIAGCRFNEDQHQAEGRRR registered an AmyQ secretion efficiency of 5.26.

MKKVLMAFIICLSVLAAPPSGAKAESV came in with an AmyQ secretion efficiency of 2.14.

Turning to MPIKKKVMMCLAVTLVFGSMSFPTLTNSGGFPE, the AmyQ secretion efficiency turned out to be 5.65.

As for MRSYIKVLTMCFLGLILFVPTHLADNS, the AmyQ secretion efficiency was 6.38.

MKKSQYFIVFICFFVLFSVHPIAQAAADS yielded an AmyQ secretion efficiency of 4.87.

In turn, MKKAAAVLLSLGLVFVGFSYGAGHVAEAKTK yielded an AmyQ secretion efficiency of 1.71.

For MLTKRLLTIYIMLLGLIAWFPGAAQAASK, the AmyQ secretion efficiency was 1.8.

For MGLGGKLSVAVAASFMSLSISLPGVQAAEG, the AmyQ secretion efficiency came out at 1.01.

Regarding MKFVKRRIRRKRTILMLSVTSLFALQPSAKAAEH, the AmyQ secretion efficiency is 3.06.

For the sequence MKRMIVRMTLPLLIVCLAFSKDSASARAASE, the AmyQ secretion efficiency was found to be 1.93.

MRKKRVITCVMAASLTLGSLLPAGYASTKED displayed an AmyQ secretion efficiency of 2.82.

MFKKHTISLLIIFLLASAVLAKPIEAHTD had an AmyQ secretion efficiency of 1.8.

Regarding MYKKFVPFAVFLFLFFVSFEMMENCHALDY, the AmyQ secretion efficiency came to 7.9.

Regarding MRKSLITLGLASVIGTSSFLIPFTKASAETL, the AmyQ secretion efficiency worked out at 2.6.

Turning to MKLKKRVSMFLVALTMCGGLFVEPAKAVKT, the AmyQ secretion efficiency came out at 2.69.
